# Assay results from patent publication EP2488198B1.
# Target: constitutively activated LFA-1 expressed at a high level on a Jurkat T-lymphocyte cell line (human) (UniProt P20701)
# Assay: cell-based or functional assay
# Sequence of constitutively activated LFA-1 expressed at a high level on a Jurkat T-lymphocyte cell line (human) (P20701 26-1170, chain 1 of 2): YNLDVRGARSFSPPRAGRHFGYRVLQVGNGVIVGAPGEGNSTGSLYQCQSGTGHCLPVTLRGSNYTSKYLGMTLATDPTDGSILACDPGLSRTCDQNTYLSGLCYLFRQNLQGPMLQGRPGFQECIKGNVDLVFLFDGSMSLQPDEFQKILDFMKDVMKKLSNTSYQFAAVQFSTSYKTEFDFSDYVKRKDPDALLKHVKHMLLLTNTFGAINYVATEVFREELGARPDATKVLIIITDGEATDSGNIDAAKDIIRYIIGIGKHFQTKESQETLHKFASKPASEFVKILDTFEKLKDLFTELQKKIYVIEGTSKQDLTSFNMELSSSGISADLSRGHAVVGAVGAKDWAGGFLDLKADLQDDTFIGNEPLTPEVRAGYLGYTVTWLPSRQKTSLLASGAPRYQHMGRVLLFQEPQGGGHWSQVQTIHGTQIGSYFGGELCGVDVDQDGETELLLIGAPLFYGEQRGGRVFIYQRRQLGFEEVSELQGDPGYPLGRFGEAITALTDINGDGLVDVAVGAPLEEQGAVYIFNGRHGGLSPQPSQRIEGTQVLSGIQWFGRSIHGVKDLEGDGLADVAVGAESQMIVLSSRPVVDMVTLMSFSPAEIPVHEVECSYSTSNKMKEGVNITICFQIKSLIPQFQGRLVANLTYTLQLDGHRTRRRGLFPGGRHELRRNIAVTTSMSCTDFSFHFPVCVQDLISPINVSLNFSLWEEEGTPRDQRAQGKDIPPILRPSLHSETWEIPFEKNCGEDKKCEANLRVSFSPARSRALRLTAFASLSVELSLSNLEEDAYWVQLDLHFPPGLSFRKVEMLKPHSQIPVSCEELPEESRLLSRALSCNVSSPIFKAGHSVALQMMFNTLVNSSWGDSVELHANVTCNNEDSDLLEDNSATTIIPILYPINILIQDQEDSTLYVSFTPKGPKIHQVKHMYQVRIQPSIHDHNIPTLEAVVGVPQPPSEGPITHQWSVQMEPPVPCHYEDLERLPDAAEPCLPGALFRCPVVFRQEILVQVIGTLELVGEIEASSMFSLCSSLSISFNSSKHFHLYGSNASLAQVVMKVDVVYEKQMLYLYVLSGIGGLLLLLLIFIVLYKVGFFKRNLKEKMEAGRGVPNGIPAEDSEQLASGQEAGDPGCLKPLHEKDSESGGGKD
# Sequence of constitutively activated LFA-1 expressed at a high level on a Jurkat T-lymphocyte cell line (human) (P05107 23-769, chain 2 of 2, further chain): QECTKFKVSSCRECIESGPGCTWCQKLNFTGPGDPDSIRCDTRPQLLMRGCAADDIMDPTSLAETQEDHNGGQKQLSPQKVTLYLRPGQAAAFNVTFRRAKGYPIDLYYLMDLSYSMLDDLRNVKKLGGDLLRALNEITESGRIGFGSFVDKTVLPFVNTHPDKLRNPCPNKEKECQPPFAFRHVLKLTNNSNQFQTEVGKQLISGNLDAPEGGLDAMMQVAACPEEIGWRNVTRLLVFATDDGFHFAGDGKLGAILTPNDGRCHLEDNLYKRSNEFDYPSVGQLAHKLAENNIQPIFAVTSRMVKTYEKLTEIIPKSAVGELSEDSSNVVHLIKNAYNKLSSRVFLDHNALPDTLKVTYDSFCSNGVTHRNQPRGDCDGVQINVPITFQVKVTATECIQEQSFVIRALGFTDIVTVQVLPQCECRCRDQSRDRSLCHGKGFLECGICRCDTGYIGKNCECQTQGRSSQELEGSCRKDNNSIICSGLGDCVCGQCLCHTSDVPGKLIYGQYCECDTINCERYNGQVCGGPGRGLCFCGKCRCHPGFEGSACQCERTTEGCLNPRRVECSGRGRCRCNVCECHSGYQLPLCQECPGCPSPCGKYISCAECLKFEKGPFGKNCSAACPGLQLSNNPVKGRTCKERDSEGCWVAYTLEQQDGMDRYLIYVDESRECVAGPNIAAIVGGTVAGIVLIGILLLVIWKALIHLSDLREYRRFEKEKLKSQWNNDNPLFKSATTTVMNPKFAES
substance,measurement,value
Leukotoxin (LtxA) of Aggregatibacter actinomycetemcomitans strain NJ4500 (from UniProt P16462 1-1055),sensitivity to LtxA-mediated toxicity,10 times
